According to patent publication US20110282033A1 (Ablynx, published 2011):

T1: Recombinant human FGFR4/Fc chimera (R&D Systems Cat #685 FR) (human, UniProt P22455 22-369)
T1 construct: extracellular domain; Bought reagent; also called Fc-FGFR4; not shown: Fc part of the bought chimera (detected with anti-human IgG)
T1 sequence (looked up): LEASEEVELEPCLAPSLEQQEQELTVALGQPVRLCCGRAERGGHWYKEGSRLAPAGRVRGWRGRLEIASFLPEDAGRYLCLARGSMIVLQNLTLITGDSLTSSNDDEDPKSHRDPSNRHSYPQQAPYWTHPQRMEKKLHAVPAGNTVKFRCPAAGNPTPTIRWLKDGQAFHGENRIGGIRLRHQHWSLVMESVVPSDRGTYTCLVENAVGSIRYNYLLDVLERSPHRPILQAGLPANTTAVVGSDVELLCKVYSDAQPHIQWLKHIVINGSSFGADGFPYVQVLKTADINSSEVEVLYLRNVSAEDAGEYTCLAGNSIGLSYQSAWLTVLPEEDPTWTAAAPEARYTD


Columns and labels:
[1] = biological target: T1, Recombinant human FGFR4/Fc chimera (R&D …); assay: ELISA: periplasmic extract on coated FGFR4-Fc (500 ng/ml)
Procedure: In order to determine binding specificity to FGFR4, the clones were tested in an ELISA binding assay setup, using the monoclonal […]. Shortly, 500 ng/ml of Fc-FGFR4 (R&D Systems Cat #685 FR) was coated on Maxisorp ELISA plates (Nunc) and free binding sites were blocked using 4% Marvel skimmed milk in PBS. After a wash step with PBS, 10 ul of periplasmic extract from the monoclonal inductions of the different clones in 100 ul 2% Marvel PBS were allowed to bind to the FGFR4-Fc. […] 53-G3 was used as a reference since it was selected against PDGFRβ-Fc.

[2] = biological target: T2, Recombinant human PDGFRβ/Fc chimera (R&D Systems Cat #385 PR) (human, UniProt P09619 33-532); assay: phage ELISA on PDGFRβ-Fc (0.1 ug/ml) captured by coated anti-human IgG, detection with HRP anti-M13
T2 construct: extracellular domain; Bought reagent; also called PDGFRP-Fc; not shown: Fc part of the bought chimera (captured and detected with anti-human IgG)
Procedure: In order to determine binding specificity to PDGFRβ-Fc, the clones were tested in an ELISA binding assay setup, using the monoclonal phage pools. Shortly, 1 ug/ml of Fc-capturing Ab (Rabbit anti-human IgG, DAKO # A423) was coated on Maxisorp ELISA plates (Nunc) and free binding sites were blocked using 4% Marvel skimmed milk in PBS. Next, 0.1 ug/ml receptor in 2% Marvel/PBS was captured. After a wash step with PBS, 10 ul of supernatant from the monoclonal phage inductions of the different clones in 100 ul 2% Marvel PBS were allowed to bind to the captured PDGFRP-Fc. […] Binding specificity was determined based on OD values compared to controls having received no phage.

PDGFRb on HeLa cells = biological target: T3, PDGFRb on HeLa cells (human, UniProt P09619 33-1106); assay: immunofluorescence on HeLa cells, 40 nM Nanobody, detection with mouse anti-myc and goat anti-mouse Alexa 488; PDGFR co-stained with a commercial antibody
T3 construct: whole, on cells; HeLa cells were not transfected
Procedure: 40 nM of nanobody was added in medium and incubated 30 minutes at room temperature. Cells were put on ice to stop internalization and washed 3 times with ice-cold PBS. Cells were fixed by incubation for 30 minutes with 4% PFA at room temperature. After washing with PBS amine groups were blocked by incubation for 10 min. with 100 mM glycin in PBS at room temperature. After washing cells were permeabilized by incubation for 5 min. with 0.2% TritonX-100 in PBS at room temperature.
Cells were blocked by incubation in 2% Marvell/PBS for 15 minutes. Subsequently nanobodies were detected by incubation for 1 hour with mouse anti-myc (9E10) antibody in 2% Marvell/PBS and after washing 1 hour with goat-anti-mouse-alexa-488 in 2% Marvell/PBS in the dark. After washing coverslips were mounted with 4 ul mowiol and let to dry for at least 30 minutes. Dry slides were stored at −20 C.

[3] = biological target: T1, Recombinant human FGFR4/Fc chimera (R&D …); assay: competition ELISA: FGFR4-Fc with heparin and MgCl2 pre-mixed with Nanobody, binding to coated acidic FGF (129 nM), detection with HRP anti-human IgG
Procedure: Clones tested in the FGFR4 binding assay were also screened for their ability to block acidic FGF binding to FGFR4-Fc. For this, purified Nanobodies, were used in an ELISA-based ligand competition setup. In short, 2.0 ug/ml (129 nM) human FGF (R&D Systems Cat #232-FA/CF) was coated in 96 well Maxisorp microtiter plates (Nunc) and blocked with 4% Marvel skimmed milk in PBS. In parallel, 0.25 ug/ml (1.9 nM) FGFR4-Fc chimera plus 2.5 μg/ml heparin and 10 mM MgCl₂ were incubated with periplasmic extracts or purified Nanobody. After 1 hour, the receptor-Nanobody pre-mixes were incubated 1 hour with the coated ligand. Bound FGFR4-Fc was detected using HRP-conjugated goat anti-human IgG (Jackson Immunoresearch, Cat #109-035-098). Blocking activity was determined as loss of OD signal, as compared to wells where irrelevant Nanobody had been added. […] Ligand is coated at 129 nM and receptor is added at […].

[4] = biological target: T2, Recombinant human PDGFRβ/Fc chimera …; assay: ELISA ligand competition with PDGFRβ-Fc and coated PDGF-BB (FIG. 5)
Procedure: Clones tested in the PDGFRβ binding assay were also screened for their ability to block PDGF-BB binding to PDGFRβ-Fc. For this, Nanobody containing periplasmic extracts, or selected purified Nanobodies, were used in an ELISA-based ligand competition setup. In short, 1.0 ug/ml (80 nM) recombinant human PDGF-BB (R&D Systems #220-BB) was coated in 96 well Maxisorp microtiter plates (Nunc) and blocked with 4% Marvel skimmed milk in PBS. In parallel, 1 ug/ml (12 nM) PDGFRβ-Fc chimera was incubated with periplasmic extracts or purified Nanobody. After 1 hour, the receptor-Nanobody pre-mixes were incubated 1 hour with the coated ligand. Bound PDGFRβ-Fc was detected using HRP-conjugated goat anti-human IgG (Jackson Immunoresearch, Cat #109-035-098). Blocking activity was determined as loss of OD signal, as compared to wells where no Nanobodies, or irrelevant Nb, had been added.

[5] = biological target: dimeric VEGFR1/Fc chimera (R&D Systems Cat #321-FL) (UniProt P17948); assay: competition ELISA: VEGFR1-Fc (0.1 ug/ml) pre-mixed with Nanobody, binding to coated VEGF165 (0.2 ug/ml), detection with HRP anti-human IgG
Chain of dimeric VEGFR1/Fc chimera (R&D Systems Cat #321-FL) (P17948 27-758 limits assumed, change not shown): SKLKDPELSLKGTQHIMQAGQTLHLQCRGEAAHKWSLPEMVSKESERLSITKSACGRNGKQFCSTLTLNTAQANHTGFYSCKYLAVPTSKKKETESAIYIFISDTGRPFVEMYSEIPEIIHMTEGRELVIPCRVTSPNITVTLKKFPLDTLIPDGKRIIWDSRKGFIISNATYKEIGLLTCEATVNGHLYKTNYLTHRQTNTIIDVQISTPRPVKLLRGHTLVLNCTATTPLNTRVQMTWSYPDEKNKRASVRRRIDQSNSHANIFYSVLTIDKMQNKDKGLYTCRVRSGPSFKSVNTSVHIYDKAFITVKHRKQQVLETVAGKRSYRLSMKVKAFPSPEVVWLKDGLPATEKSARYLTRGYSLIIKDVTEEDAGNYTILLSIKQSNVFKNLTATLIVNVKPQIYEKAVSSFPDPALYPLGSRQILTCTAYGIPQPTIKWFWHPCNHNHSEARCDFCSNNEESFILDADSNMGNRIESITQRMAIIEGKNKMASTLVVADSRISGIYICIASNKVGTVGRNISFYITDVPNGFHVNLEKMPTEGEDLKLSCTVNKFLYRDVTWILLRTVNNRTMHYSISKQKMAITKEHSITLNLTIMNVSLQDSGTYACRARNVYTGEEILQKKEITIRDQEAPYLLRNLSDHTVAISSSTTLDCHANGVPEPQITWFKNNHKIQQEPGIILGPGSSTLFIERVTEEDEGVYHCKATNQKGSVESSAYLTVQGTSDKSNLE

T2 sequence (P09619 33-532, change not shown): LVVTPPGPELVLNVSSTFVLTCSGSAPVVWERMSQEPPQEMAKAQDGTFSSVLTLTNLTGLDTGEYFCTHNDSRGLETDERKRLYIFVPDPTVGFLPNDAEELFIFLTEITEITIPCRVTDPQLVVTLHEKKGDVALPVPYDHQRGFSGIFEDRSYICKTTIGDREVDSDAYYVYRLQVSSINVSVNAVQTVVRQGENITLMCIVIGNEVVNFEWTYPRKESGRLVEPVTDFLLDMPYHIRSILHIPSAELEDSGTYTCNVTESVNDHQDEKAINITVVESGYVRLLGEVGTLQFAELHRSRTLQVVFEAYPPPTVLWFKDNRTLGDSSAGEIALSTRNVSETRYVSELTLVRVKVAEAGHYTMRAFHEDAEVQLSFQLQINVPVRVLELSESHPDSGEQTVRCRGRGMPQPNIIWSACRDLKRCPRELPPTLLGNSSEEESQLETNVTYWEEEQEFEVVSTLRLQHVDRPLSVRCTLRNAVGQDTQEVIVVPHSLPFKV
T3 sequence (P09619 33-1106): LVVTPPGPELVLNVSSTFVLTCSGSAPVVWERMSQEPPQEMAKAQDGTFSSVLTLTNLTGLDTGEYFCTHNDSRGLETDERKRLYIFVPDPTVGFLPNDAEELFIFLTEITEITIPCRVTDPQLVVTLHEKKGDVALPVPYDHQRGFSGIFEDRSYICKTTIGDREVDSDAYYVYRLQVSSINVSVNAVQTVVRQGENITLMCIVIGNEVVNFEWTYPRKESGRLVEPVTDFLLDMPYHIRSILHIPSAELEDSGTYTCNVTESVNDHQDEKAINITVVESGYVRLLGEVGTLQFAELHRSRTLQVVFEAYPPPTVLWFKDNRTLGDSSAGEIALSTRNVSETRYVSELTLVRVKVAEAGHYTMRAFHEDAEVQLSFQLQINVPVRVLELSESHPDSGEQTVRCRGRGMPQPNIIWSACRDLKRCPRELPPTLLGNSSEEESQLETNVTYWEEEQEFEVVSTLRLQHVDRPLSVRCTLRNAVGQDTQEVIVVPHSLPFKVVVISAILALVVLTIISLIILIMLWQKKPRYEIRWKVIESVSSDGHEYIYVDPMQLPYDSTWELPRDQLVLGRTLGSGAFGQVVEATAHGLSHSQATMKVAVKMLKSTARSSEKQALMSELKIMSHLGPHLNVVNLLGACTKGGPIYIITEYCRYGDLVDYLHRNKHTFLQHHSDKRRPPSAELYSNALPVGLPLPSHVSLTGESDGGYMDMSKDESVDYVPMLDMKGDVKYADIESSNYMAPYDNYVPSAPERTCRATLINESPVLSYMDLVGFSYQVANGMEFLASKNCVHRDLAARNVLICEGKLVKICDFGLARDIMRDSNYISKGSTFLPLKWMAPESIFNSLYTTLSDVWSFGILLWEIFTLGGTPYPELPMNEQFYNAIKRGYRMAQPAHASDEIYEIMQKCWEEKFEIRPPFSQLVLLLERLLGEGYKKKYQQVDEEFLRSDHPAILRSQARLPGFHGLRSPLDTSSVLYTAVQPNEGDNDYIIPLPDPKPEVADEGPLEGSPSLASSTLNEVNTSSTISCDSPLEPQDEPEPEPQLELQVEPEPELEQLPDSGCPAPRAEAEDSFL

Row | binding result [2] | binding result (PDGFRb on HeLa cells) | Binder | other results
1 | binds | binds | 53-G3 (VHH, Purified Nanobody; Also used as negative control in the FGFR4 assays) VHH: EVQLVESGGGLVQAGGSLRLSCAASRRTFSSYAMGWFRQAPGKEREIVADISWNGSRTYYADSAKGRFTISRDNAKNTVYLQMNSLKPEDTAVYYCAAALFGGLGRAPSTHEYAYWGQGTQVTVSS | binding result [1]: no binding
2 | binds | binds | 53-B5 (VHH, Purified Nanobody) VHH: EVQLVESGGGLVQAGGSLRLSCAASRRTFSSYAMGWFRQAPGKEREVVADISWNGSRTYYADSAKGRFTISRDNAKNTVYLQMNSLKPEDTAVYYCAAALFGGLGRAPSTHEYAYWGQGTQVTVSS | 
3 |  |  | 73-G9 (VHH, Purified Nanobody) VHH: EVQLVESGGGLVQPGGSLKLSCAAAGFTFRPYAMGWFRQAPGKEREFVAAVATNVGTTFYQDSVKGRFTISRDNAKNTVYLQMNSLRPEDTAVYYCNTKLYSGIFREYWGQGTQVTVSS | IC50 (read off the curve) [3]: ~10 nM
4 |  |  | 42-H5 (VHH, Purified Nanobody; Also used as negative control in the PDGFRβ assays) VHH: EVQLVESGGGLVQPGGSLTLSCAASGFTFSSYAMSWVRQAPGKGLELVSDINSGGISTYYADSVKGRFTISRDNAKNTLYLQMNSLKPEDTAVYYCKTDTLVAGTDDYWGQGTRVTVSS | binding result [4]: no binding (tested: 50 nM)
5 |  |  | 46-F11 (VHH) VHH: EVQLVESGGGLVQPGGSLRLSCAASGFTFSSYAMSWVRQAPGKELEWVSGINSGGDRTVNADSVKGRFTVSRDNAKNTLYLQMNSLKPEDTALYYCAKSIPPTDDRNYWGQGTQVTVSS | IC50 (read off the curve) [5]: 1 nM
